Our source for the retention time values is patent US20230242677A1.

In the assay the target is Protein A (Staphylococcus aureus) (UniProt P38507). Kind of assay: Protein A interaction assay (POROS A column HPLC), acidic elution.

hu IgG (positive control) (antibody) showed a retention time of 31.3 min.
